Source: patent US20180163180A1, “METHOD OF ENHANCING SOMATIC CELL REPROGRAMMING WITH THE ACETYLLYSINE READER BRD3R” (THE UAB RESEARCH FOUNDATION, INC ., priority 2015, published 2018)

Columns and labels:
reprogramming cells [1] = assay: Mitotic shake-off of reprogramming cells; format: cell-based, human; conditions: day-4 reprogramming cells
Protocol: • Mitotic shake-off: Reprogramming cells were prepared in T75 flasks. On day 4 of reprogramming, 1 h before mitotic shake-off, replace spent media with fresh reprogramming media. Shake the flasks at 200 rpm for 1 min and collect the media containing the shake-off mitotic cells. Add new warmed media and incubate for 10 min. Repeat these shake-off collection 2 more times. Pool the cells and centrifuge at 1,000×g for 5 min. Count the cells collected.

reprogramming cells [2] = assay: Cell cycle analysis by flow cytometry of reprogramming cells; format: cell-based, human; conditions: day 6 of reprogramming, compared to controls
Protocol: • Cell Cycle Analysis: Harvest cells by trypsin solution. Fix cell with 70% cold ethanol overnight at 4° C. The next day, wash cells with PBS. Treat cells with 0.2 mg/ml RNase A in PBS containing 0.1% Triton X-100 at 37° C. for 1 h. Add PI at a final concentration of 10 μg/ml. Keep the cells in dark and at 4° C. until analysis. Analyze on BD LSRFortessa. Percentage of cells at each cell cycle phases was determined with Watson (pragmatic) (Watson et al., (1987) Cytometry 8: 1-8) and Dean-Jett-Fox (Fox M. H. (1980) Cytometry 1: 71-77) models on FlowJow.

Human fibroblasts = assay: CyQUANT cell proliferation assay of reprogramming cells; format: cell-based; conditions: before day 9 of reprogramming
Protocol: • Cell proliferation assays: Human fibroblasts were transduced with reprogramming viruses. Forty-eight hs post transduction, the reprogramming cells were plated at 4,000 cells/well of a 96-well plate. Five replicates were performed for each condition. On days 0, 1, 3, 5, 7, 9, 11 and 13, the cells were measured using a CyQUANT® NF Cell Proliferation Assay Kit (Life Technologies; c35007) per manufacturer's instruction.

H3K14Ac = target: T1, H3K14Ac (Homo sapiens, UniProt P68431); assay: Histone peptide pull-down assay; format: binding; conditions: lysates of human fibroblasts overexpressing the protein
T1 construct: Histone tails used for peptide pull-down experiments; expressed in transfected cells; host or cells: human BJ fibroblasts transduced with BRD3R lentivirus (lysate)
Protocol: (§1) • Histone peptide pull-down assay: H3 or H4 histone tails with 8 different acetylation modifications were evaluated for binding with BRD3R and BRD3. One unmodified tail for each histone was used for negative control.
(§2) Human BJ fibroblasts were transduced with BRD3 or BRD3R viruses. Three days post-transduction, cells were lysed by non-denaturing lysis buffer (20 mM HEPES pH 7.9, 150 mM NaCl, 1 mM MgCl2, 0.5% NP40, 10 mM NaF, 0.2 mM NaVO4, 10 mM β-glycerol phosphate, 5% glycerol, 1 mM DTT, 1 mM PMSF and protease inhibitors). Twenty μg of the cell lysates were incubated with 1 μg biotinylated peptide in 300 μl binding buffer (50 mM Tris pH 7.5, 150 mM NaCl, 0.1% NP-40, 1 mM PMSF and protease inhibitors) at 4° C. for overnight. The next day, 30 μl of Dynabeads M-280 Streptavidin was added into each sample (Invitrogen, 11205D). The mixture of proteins, antibodies and beads were further incubated with gentle rotation at 4° C. for 1 h. The beads were then washed with binding buffer three times. The bound proteins were resuspended in 60 μl of 2× SDS sample buffer. The pull-down proteins were analyzed by western using antibody of BRD3 (Proteintech, 11859-1-AP). Two micrograms of cell lysates were loaded as input control. For semi-quantification, band density was normalized to the corresponding inputs.

H3K9Ac = target: T2, H3K9Ac (Homo sapiens, UniProt P68431); assay: Histone peptide pull-down assay; format: binding; conditions: lysates of human fibroblasts overexpressing the protein
T2 construct: Histone tails used for peptide pull-down experiments; expressed in transfected cells; host or cells: human BJ fibroblasts transduced with BRD3R lentivirus (lysate)
Protocol: as §1, §2

H4K5Ac = target: T3, H4K5Ac (Homo sapiens, UniProt P62805); assay: Histone peptide pull-down assay; format: binding; conditions: lysates of human fibroblasts overexpressing the protein
T3 construct: Histone tails used for peptide pull-down experiments; Peg-biotin (chemical label); expressed in transfected cells; host or cells: human BJ fibroblasts transduced with BRD3R lentivirus (lysate)
Protocol: as §1, §2

[3] = target: T4, biacetylated H3 (H3K9/14Ac) (Homo sapiens, UniProt P68431); assay: Histone peptide pull-down assay; format: binding; conditions: lysates of human fibroblasts overexpressing the protein
T4 construct: Histone tails used for peptide pull-down experiments; expressed in transfected cells; host or cells: human BJ fibroblasts transduced with BRD3R lentivirus (lysate)
Protocol: as §1, §2

[4] = target: T5, tetra-acetylated H4 (H4K5/8/12/16Ac) (Homo sapiens, UniProt P62805); assay: Histone peptide pull-down assay; format: binding; conditions: lysates of human fibroblasts overexpressing BRD3R or BRD3; western with BRD3 antibody
T5 construct: Histone tails used for peptide pull-down experiments; Peg-biotin (chemical label); incubated with lysate of human BJ fibroblasts transduced with BRD3R or BRD3 virus
Protocol: as §1, §2

binding to H3K14Ac peptide (H3K14Ac): bound
binding to H3K9Ac peptide (H3K9Ac): bound
binding to H4K5Ac peptide (H4K5Ac): weakly
binding to H3K9/14Ac peptide [3]: bound very weakly
binding to H4K5/8/12/16Ac peptide [4]: bound strongly
Substance: BRD3R: BRD3 with Reprogramming activity; 556 aa isoform of human BRD3 (AAH32124, SEQ ID NO: 47), encoded by cDNA L61
mitotic cells collected compared to controls (reprogramming cells [1]): 2.43 ×
number of cells in G1 (reprogramming cells [2]): statistically reduced
population of cells in G2/M phases (reprogramming cells [2]): statistically increased
overall proliferation rate vs control cells (Human fibroblasts): comparable overall proliferation rates
